# Results: publication PMC5379764, “Polynucleotide phosphorylase is implicated in homologous recombination and DNA repair in Escherichia coli”
# T1: PNPase wild type (Escherichia coli, UniProt P05055 1-711)
# T1 sequence: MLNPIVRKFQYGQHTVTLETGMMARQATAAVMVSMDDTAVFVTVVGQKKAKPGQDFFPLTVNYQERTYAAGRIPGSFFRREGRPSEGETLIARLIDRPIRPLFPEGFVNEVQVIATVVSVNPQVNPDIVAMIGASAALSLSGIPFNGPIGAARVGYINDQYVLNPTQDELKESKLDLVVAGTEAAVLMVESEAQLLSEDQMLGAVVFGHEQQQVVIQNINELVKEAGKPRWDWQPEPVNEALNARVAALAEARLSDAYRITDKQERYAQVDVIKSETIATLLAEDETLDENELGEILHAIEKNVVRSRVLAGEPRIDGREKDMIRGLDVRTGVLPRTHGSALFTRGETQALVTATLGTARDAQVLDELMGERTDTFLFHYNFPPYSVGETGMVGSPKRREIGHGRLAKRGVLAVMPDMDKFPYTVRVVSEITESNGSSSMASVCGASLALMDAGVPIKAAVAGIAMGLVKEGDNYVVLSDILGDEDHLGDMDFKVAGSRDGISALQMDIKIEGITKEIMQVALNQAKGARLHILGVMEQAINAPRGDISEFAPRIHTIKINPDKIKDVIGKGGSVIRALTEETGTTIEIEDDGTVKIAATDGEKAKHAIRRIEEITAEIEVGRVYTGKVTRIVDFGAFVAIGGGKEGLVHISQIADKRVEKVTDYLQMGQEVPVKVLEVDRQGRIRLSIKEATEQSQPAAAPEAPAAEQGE
# Molecular target: T1, PNPase wild type
# Test: EMSA; no divalent cation; efficiency similar to RNA01; 50 mM Tris-HCl pH 7.4, 50 mM NaCl, 0.5 mM DTT, 0.025% NP40, 10% glycerol, +/- 2 mM MgCl2 or MnCl2; 50 fmol probe in 10 µl; 20 min at 21 °C; native 5% PAGE at 4
# Conditions: protein: recombinant; tags: His-tag; chain copies: 3; label: 5'-32P; single-stranded 20-mer
binder,measurement,value
ACTGGACAAATACTCCGACG (ssDNA) [DNA02],binding result,binds
